Reference: patent publication US20240376226A1 (JANUX THERAPEUTICS, published 2024)

Biological target: T1, CD3 (UniProt P07766 23-126)
T1 construct: also called CD3-biotin; CD3 biotin
Assay: ELISA, antibody titrated on captured antigen

T1 sequence (P07766 23-126): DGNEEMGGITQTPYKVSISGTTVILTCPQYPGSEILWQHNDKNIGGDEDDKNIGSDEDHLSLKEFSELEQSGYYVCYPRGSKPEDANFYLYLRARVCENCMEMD

B1: SP34 (Ab-9, Ab-10) (antibody, mouse IgG1, V domains shown)
VH: EVQLVESGGGLVQPKGSLKLSCAASGFTFNTYAMNWVRQAPGKGLEWVARIRSKYNNYATYYADSVKDRFTISRDDSQSILYLQMNNLKTEDTAMYYCVRHGNFGNSYVSWFAYWGQGTLVTVSS
VL: QAVVTQESALTTSPGETVTLTCRSSTGAVTTSNYANWVQEKPDHLFTGLIGGTNKRAPGVPARFSGSLIGDKAALTITGAQTEDEAIYFCALWYSNLWVFGGGTKLTVLQ
notes: used naked or chemically biotinylated; also called SP34-biotin
For B1, the EC50 was under 1 nM.
